According to paper PMC12485084:

Target: 3xFLAG-TurboID-CaM C-lobe (human)
Assay: proximity labelling

Sequence of 3xFLAG-WT human TRPA1 (Transient Receptor Potential Ankyrin subtype 1) (O75762 whole entry): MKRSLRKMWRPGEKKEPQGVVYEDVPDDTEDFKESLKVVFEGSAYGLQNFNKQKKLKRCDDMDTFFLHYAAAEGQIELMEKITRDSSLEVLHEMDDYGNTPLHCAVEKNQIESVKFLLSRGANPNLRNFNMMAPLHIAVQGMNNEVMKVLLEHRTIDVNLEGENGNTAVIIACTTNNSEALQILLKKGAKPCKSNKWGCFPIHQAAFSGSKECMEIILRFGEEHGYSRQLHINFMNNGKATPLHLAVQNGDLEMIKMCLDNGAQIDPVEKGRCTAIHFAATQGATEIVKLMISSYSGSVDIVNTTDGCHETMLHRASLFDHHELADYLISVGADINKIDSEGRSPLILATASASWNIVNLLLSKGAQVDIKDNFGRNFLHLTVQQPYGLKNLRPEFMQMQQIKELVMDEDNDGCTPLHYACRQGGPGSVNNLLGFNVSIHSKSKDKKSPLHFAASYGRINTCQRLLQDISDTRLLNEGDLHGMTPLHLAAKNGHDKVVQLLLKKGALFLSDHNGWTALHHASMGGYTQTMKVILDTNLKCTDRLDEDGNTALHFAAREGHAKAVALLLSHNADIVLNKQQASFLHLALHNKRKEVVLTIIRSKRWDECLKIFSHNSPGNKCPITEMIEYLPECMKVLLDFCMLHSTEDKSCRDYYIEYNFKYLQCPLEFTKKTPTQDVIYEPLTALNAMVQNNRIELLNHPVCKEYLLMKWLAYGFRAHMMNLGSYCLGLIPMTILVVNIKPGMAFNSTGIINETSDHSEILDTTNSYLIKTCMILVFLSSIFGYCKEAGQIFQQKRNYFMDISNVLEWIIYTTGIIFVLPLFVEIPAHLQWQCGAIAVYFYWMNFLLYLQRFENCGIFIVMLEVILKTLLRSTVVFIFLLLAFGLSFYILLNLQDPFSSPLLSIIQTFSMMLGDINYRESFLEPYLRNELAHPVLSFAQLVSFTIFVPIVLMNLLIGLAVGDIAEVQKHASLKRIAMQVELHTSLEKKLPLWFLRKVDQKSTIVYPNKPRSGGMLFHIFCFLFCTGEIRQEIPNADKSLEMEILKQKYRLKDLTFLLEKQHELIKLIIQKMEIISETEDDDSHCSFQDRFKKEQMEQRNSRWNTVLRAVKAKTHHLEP

3xFLAG-WT human TRPA1 (Transient Receptor Potential Ankyrin subtype 1) (from UniProt O75762 1-1119) (natural protein)
percent increase in biotinylation with TurboID-CaM C-lobe versus free TurboID: 40%
